{
  "source": "paper PMC7101349",
  "test_in_all_cases": "not stated; tetrameric assembly of the BRIL-KcsA linker constructs; how it was judged is not told",
  "key": {"[1]": {"molecular_target": "BRIL-2turn-KcsA (construct 7) (UniProt P0A334)"}, "[2]": {"molecular_target": "BRIL-AAA-KcsA (construct 2) (UniProt P0A334)"}, "[3]": {"molecular_target": "BRIL-AAAA-KcsA (construct 3, 1 turn) (UniProt P0A334)"}, "[4]": {"molecular_target": "BRIL-AAAAA-KcsA (construct 4) (UniProt P0A334)"}, "[5]": {"molecular_target": "BRIL-AARAAA-KcsA (construct 5) (UniProt P0A334)"}, "[6]": {"molecular_target": "BRIL-AARAAAA-KcsA (construct 6) (UniProt P0A334)"}},
  "data": [
    {"substance": "BRIL-2turn-KcsA (construct 7) (from UniProt P0A334 24-160)", "values": [
      {"measurement": "stoichiometry N", "setting": "[1]", "value": 4}
    ]},
    {"substance": "BRIL-AAA-KcsA (construct 2) (from UniProt P0A334 24-160)", "values": [
      {"measurement": "stoichiometry N", "setting": "[2]", "value": 4}
    ]},
    {"substance": "BRIL-AAAA-KcsA (construct 3, 1 turn) (from UniProt P0A334 24-160)", "values": [
      {"measurement": "stoichiometry N", "setting": "[3]", "value": 4}
    ]},
    {"substance": "BRIL-AAAAA-KcsA (construct 4) (from UniProt P0A334 24-160)", "values": [
      {"measurement": "stoichiometry N", "setting": "[4]", "value": 4}
    ]},
    {"substance": "BRIL-AARAAA-KcsA (construct 5) (from UniProt P0A334 24-160)", "values": [
      {"measurement": "stoichiometry N", "setting": "[5]", "value": 4}
    ]},
    {"substance": "BRIL-AARAAAA-KcsA (construct 6) (from UniProt P0A334 24-160)", "values": [
      {"measurement": "stoichiometry N", "setting": "[6]", "value": 4}
    ]}
  ]
}
